# Data: the DeepSol protein solubility set
# Experiment: soluble on expression in E. coli; label from the status in PepcDB or PDB records
row,Sequence,soluble on expression in E. coli
1,GSSNSHRGLAPTNVDFAFNLYQRLVALNPDKNTLISPVSISMALAMVSLGSAQTQSLQSLGFNLTETSEAEIHQSFQYLNYLLKQSDTGLEMNMGNAMFLLQKLKLKDSFLADVKQYYESEALAIDFEDWTKASQQINQHVKDKTQGKIEHVFSDLDSPASFILVNYIFLRGIWELPFSPENTREEDFYVNETSTVKVPMMVQSGSIGYFRDSVFPCQLIQMDYVGNGTAFFILPDQGQMDTVIAALSRDTIDRWGKLMTPRQVNLYIPKFSMSDTYDLKDVLEDLNIKDLLTNQSDFSGNTKDVPLTLTMVHKAMLQLDEGNVLPNSTNGAPLHLRSEPLDIKFNKPFILLLFDKFTWSSLMMSQVVNPA,soluble
2,GSTAIGINDTYSEVKSDLAQQKAEMELSDLIRKGYHKALVKLKLKKNTVDDISESLRQGGGKLNFDELRQDLKGKGHTDAEIEAIFTKYDQDGDQELTEHEHQQMRDDLEKEREDLDLDHSSL,soluble
3,GSTERPVAGPYITFTDAVNETTIMLKWMYIPASNNNTPIHGFYIYYRPTDSDNDSDYKKDMVEGDKYWHSISHLQPETSYDIKMQCFNEGGESEFSNVMICETKARKSSGQ,soluble
4,GTDDEEKDNNGQGSVSVETNYLPIADPYVMFYNNKYYAYGTGGTTAGEGFACFSSDDLKNWKREGQALSATDSYGTWGFWAPEVYYVESKKKFYLFYSAEEHICVATSTTPEGPFRQEVKQPIWSEKSIDTSLFIDDDGTPYLYFVRFTDGNVIWVAQMTDDLMSIKTETLNQCIKAEVSWELLQGKVAEGPSLLKKNGVYYLIYSANHYENKGYGVGYATSDTPMGPWVKYSKNPLLQGDAATGLVGTGHGAPFQCKDGSWKYIFHAHWSAAEIQPRTSYIKDFAISDQGVVTISGTVIKPRVLK,soluble
5,GVFTFEDEINSPVAPATLYKALVTDADNVIPKALDSFKSVENVEGNGGPGTIKKITFLEDGETKFVLHKIESIDEANLGYSYSVVGGAALPDTAEKITFDSKLVAGPNGGSAGKLTVKYETKGDAEPNQDELKTGKAKADALFKAIEAYLLAHPDYN,soluble
6,HGPWPAAGAWELTILHTNDVHSRLEQTSEDSSKCVNASRCMGGVARLFTKVQQIRRAEPNVLLLDAGDQYQGTIWFTVYKGAEVAHFMNALRYDAMALGNHEFDNGVEGLIEPLLKEAKFPILSANIKAKGPLASQISGLYLPYKVLPVGDEVVGIVGYTSKETPFLSNPGTNLVFEDEITALQPEVDKLKTLNVNKIIALGHSGFEMDKLIAQKVRGVDVVVGGHSNTFLYTGNPPSKEVPAGKYPFIVTSDDGRKVPVVQAYAFGKYLGYLKIEFDERGNVISSHGNPILLNSSIPEDPSIKADINKWRIKLDNYSTQELGKTIVYLDGSSQSCRFRECNMGNLICDAMINNNLRHTDEMFWNHVSMCILNGGGIRSPIDERNNGTITWENLAAVLPFGGTFDLVQLKGSTLKKAFEHSVHRYGQSTGEFLQVGGIHVVYDLSRKPGDRVVKLDVLCTKCRVPSYDPLKMDEVYKVILPNFLANGGDGFQMIKDELLRHDSGDQDINVVSTYISKMKVIYPAVEGRIKFSTGSVRASSPSPL,soluble
7,HHHHHHMAKKVNWYVSCSPRSPEKIQPELKVLANFEGSYWKGVKGYKAQEAFAKELAALPQFLGTTYKKEAAFSTRDRVAPMKTYGFVFVDEEGYLRITEAGKMLANNRRPKDVFLKQLVKWQYPSFQHKGKEYPEEEWSINPLVFVLSLLKKVGGLSKLDIAMFCLTATNNNQVDEIAEEIMQFRNEREKIKGQNKKLEFTENYFFKRFEKIYGNVGKIREGKSDSSHKSKIETKMRNARDVADATTRYFRYTGLFVARGNQLVLNPEKSDLIDEIISSSKVVKNYTRVEEFHEYYGNPSLPQFSFETKEQLLDLAHRIRDENTRLAEQLVEHFPNVKVEIQVLEDIYNSLNKKVDVETLKDVIYHAKELQLELKKKKLQADFNDPRQLEEVIDLLEVYHEKKNVIEEKIKARFIANKNTVFEWLTWNGFIILGNALEYKNNFVIDEELQPVTHAAGNQPDMEIIYEDFIVLGEVTTSKGATQFKMESEPVTRHYLNKKKELEKQGVEKELYCLFIAPEINKNTFEEFMKYNIVQNTRIIPLSLKQFNMLLMVQKKLIEKGRRLSSYDIKNLMVSLYRTTIECERKYTQIKAGLEETLNNWVVDKEVRF,soluble
8,HIPEMGGQHYLGDSLDKDWRVTRDNQQFAFEYQDNEGQAQSKVLTLKVGDNLEEVATYINAQQSVVDASVTQDHQLQFFTSTLNAPEGITWKGNFADEMDIGSGELVTVDDLDMSTVGGAQLAIGVVDAAIKYVDSHRSEIGGFQNRVSGTIDNLNTINRSVSESKGRIRDTDFARESTVMVRSQVLQDATTALLAQAKQRPSSALGLLS,not soluble
9,HMDPDELPLDEHCERLPYDASKWEFPRDRLNLGKPLGRGAFGQVIEADAFGIDKTATCRTVAVKMLKEGATHSEHRALMSELKILIHIGHHLNVVNLLGACTKPGGPLMVIVEFCKFGNLSTYLRSKRNEFVPYKTPEDLYKDFLTLEHLICYSFQVAKGMEFLASRKCIHRDLAARNILLSEKNVVKICDFGLARDIYKDPDYVRKGDARLPLKWMAPETIFDRVYTIQSDVWSFGVLLWEIFSLGASPYPGVKIDEEFCRRLKEGTRMRAPDYTTPEMYQTMLDCWHGEPSQRPTFSELVEHLGNLLQANAQQD,soluble
10,HMTELLKNHVAGQWIAGTGAGITLTDPVTGVALVRVSSEGLDLARAFSFAREDGGAALRALTYAQRAARLADIVKLLQAKRGDYYAIATANSGTTRNDSAVDIDGGIFTLSYYAKLGASLGEVHALRDGSAESLSKDRSFSAQHVLSPTRGVALFINAFNFPSWGLWEKAAPALLSGVPVIVKPATATAWLTQRMVADVVDAGILPPGALSIICGSSAGLLDQIRSFDVVSFTGSADTAATLRAHPAFVQRGARLNVEADSLNSAILCADATPDTPAFDLFIKEVVREMTVKSGQKCTAIRRAFVPEAALEPVLEALKAKLAKITVGNPRNDAVRMGSLVSREQYENVLAGIAALREEAVLAYDSSAVPLIDADANIAACVAPHLFVVNDPDNATLLHDVEVFGPVASVAPYRVTTDTNALPEAHAVALARRGQGSLVASIYSNDDAHLGRLALELADSHGRVHAISPSVQHSQTGHGNVMPMSLHGGPGRAGGGEELGGLRALAFYHRRSAIQAASAAIGTLTQATHWPAA,soluble
11,HNITRPIRSMSSTCREINKNKGNYRSYRFESVKRKDEIGQLAVTFESLLRNMDNYTKMEYTSKMSATLAHEIKNPIAGIRSGIQLLKGRAAKESDKMLCESMIKEVDRVTTLIMNLFTLSVKKESPKELISFEKVIGEIAMIYSKGAEGQGVVMETAVEEGLTGYLNENEFRQIAHNLISNSIKSVIPGIEGRIRISGRESGNKALIEFQDNGKGMSREELTRAMEPFYTKSINGIGIGLAIVKKLVEQNGGLMEMASACGEGTCVRLTFYRRVEDYEENISRG,not soluble
12,HNPIDLMREIGALRQRGYNDRQIGEKIGVSTEYVNMIAGLLEKGEERLVSAVETGVLPLNLAIEISKTDAKGAQKALMDAYTQNKLRGRKLALVRRLIQQRELRGPQLHSNPLGRKPPKRALTSEGLVRAYQQEATRQKLLIKKAELTQSRLMFVREAFRKLRAD,not soluble
13,HVHVVSNEILGLTNLLKDKKIKSKVIQFEVQFPTEEVAAHLSIDQKTPVYYVVRLRIVEGEPYVLEKTYMPTHLIPGINDDVLHDSIYNHITNVLQLKIAGTHRKIRACKSDHIDQQHLGCKQDDPILEVEHVGFLDTGIPFEYSFSRHRHDKFVVTSVNIRR,not soluble
14,HYNLKASNDAKIMKTLKEARQYEQSAKPTHIQQYFKHLGQMNYQIMTVDQKGHKTFYGEPFREDTLSQNAINNVLNNKDYHGIKDKPFALFVTGFFDNVTDNTVGINFKTKDGSIAVFMRPDIGETFSEFRT,not soluble
15,IDAPSFRDKRQADKLFEKDTMDWKVSINDKSIDYSQYKMPGKKGAFPYSNLDEQLAEYNELNGVYFSNGKRVELSELQATGTAKETHRVNSPLTKAKIAYLEMTDEERQLFMKWVSQQ,not soluble
16,IDRMDRFALRFRALQNQYEQHKSPMRGLCGMRAGLIPHQLFIAHEVGRRYAPRVLLADEVGLGKTIEAGMIIHQQVLSGRAERVLIVVPETLQHQWLVEMMRRFNLHFSIFDEERCVEAYADSENPFDTAQFVLCSLDFIRKSKRRFEQVVEADWDLLVVDEAHHLEWNQTKPSREYQVIEAIAEETPGVLLLTATPE,not soluble
